Assay results from US20080207488.

T1: β2-glycoprotein I purified from fresh human plasma, P02749
T1 chain: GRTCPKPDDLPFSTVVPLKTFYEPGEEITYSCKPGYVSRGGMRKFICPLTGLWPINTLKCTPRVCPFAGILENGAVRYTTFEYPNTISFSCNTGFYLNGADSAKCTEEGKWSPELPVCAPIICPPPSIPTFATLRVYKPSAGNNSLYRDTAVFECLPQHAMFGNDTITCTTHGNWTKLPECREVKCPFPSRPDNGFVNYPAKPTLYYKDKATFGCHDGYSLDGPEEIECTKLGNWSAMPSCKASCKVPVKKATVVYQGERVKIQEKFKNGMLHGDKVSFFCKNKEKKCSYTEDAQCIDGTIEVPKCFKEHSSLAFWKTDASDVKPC

T2: recombinant human β2-glycoprotein I, P02749
T2 chain: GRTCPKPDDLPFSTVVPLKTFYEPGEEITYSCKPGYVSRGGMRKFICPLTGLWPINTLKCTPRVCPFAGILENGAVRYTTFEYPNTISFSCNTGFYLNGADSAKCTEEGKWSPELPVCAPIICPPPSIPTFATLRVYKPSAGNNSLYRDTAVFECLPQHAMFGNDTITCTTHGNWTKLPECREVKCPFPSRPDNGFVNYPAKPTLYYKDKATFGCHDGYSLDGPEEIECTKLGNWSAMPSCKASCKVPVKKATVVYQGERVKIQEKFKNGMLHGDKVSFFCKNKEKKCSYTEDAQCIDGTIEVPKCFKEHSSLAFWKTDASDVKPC

T3: non-amyloid fragment FP10 of human fibrin α-chain (148-157)
T3 chain: KRLEVDIDIK

T4: freshly dissolved FP13 K157G
T4 chain: KRLEVDIDIGIRS

T5: human fibrin α-chain (148-160) amyloid fragment with Lys157Gly mutation (FP13), aggregated
T5 chain: KRLEVDIDIGIRS


How the values were obtained:
[1] = target: T1, β2-glycoprotein I purified from fresh …
[2] = target: T2, recombinant human β2-glycoprotein I, …
[3] = target: human amyloid-β (Aβ) (1-40) Dutch type
[4] = target: T3, non-amyloid fragment FP10 of human …
[5] = target: glycated human haemoglobin (Hb-AGE), P69905
[6] = target: T4, freshly dissolved FP13 K157G
[7] = target: T5, human fibrin α-chain (148-160) amyloid …
[8] = target: native haemoglobin (Hb), P69905
Sequence of native haemoglobin (Hb), P69905 (P69905 2-142, chain 1 of 2): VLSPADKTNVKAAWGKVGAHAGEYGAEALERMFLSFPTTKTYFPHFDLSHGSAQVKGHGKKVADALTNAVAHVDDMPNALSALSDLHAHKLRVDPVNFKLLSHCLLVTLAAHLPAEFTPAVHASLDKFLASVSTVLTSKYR
Sequence of native haemoglobin (Hb), P69905 (chain, as listed by the source, chain 2 of 2): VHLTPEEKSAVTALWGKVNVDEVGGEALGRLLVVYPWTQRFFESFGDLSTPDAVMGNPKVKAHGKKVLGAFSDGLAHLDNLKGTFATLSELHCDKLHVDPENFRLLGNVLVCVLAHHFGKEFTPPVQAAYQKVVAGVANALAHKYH

Sequence of glycated human haemoglobin (Hb-AGE), P69905 (P69905 2-142, chain 1 of 2): as the sequence (P69905 2-142, chain 1 of 2) above
Sequence of glycated human haemoglobin (Hb-AGE), P69905 (chain, as listed by the source, chain 2 of 2): as the sequence (chain, as listed by the source, chain 2 of 2) above

Row | Protein | tPA-mediated conversion of Plg to Pls (substrate S-2251) [1] | tPA-mediated conversion of Plg to Pls (substrate S-2251) [2] | activation of factor XII (conversion of Chromozym PK by kallikrein) [3] | factor XII auto-activation (substrate S-2222) [3] | activation of factor XII (conversion of Chromozym PK by kallikrein) [4] | factor XII auto-activation (substrate S-2222) [5] | activation of factor XII (conversion of Chromozym PK by kallikrein) (LAM12) | factor XII auto-activation (substrate S-2222) [6] | activation of factor XII (conversion of Chromozym PK by kallikrein) [7] | factor XII auto-activation (substrate S-2222) [7] | activation of factor XII (conversion of Chromozym PK by kallikrein) (TTR11) | activation of factor XII (conversion of Chromozym PK by kallikrein) (mIAPP) | factor XII auto-activation (substrate S-2222) [8]
1 | tissue-type plasminogen activator (tPA) (protein) SYQVICRDEKTQMIYQQHQSWLRPVLRSNRVEYCWCNSGRAQCHSVPVKSCSEPRCFNGGTCQQALYFSDFVCQCPEGFAGKCCEIDTRATCYEDQGISYRGTWSTAESGAECTNWNSSALAQKPYSGRRPDAIRLGLGNHNYCRNPDRDSKPWCYVFKAGKYSSEFCSTPACSEGNSDCYFGNGSAYRGTHSLTESGASCLPWNSMILIGKVYTAQNPSAQALGLGKHNYCRNPDGDAKPWCHVLKNRRLTWEYCDVPSCSTCGLRQYSQPQFRIKGGLFADIASHPWQAAIFAKHRRSPGERFLCGGILISSCWILSAAHCFQERFPPHHLTVILGRTYRVVPGEEEQKFEVEKYIVHKEFDDDTYDNDIALLQLKSDSSRCAQESSVVRTVCLPPADLQLPDWTECELSGYGKHEALSPFYSERLKEAHVRLYPSSRCTSQHLLNRTVTDNMLCAGDTRSGGPQANLHDACQGDSGGPLVCLNDGRMTLVGIISWGLGCGQKDVPGVYTKVTNYLDWIRDNMRP | but not β2GPI purified from fresh plasma | Recombinant β2GPI, but not β2GPI purified from fresh plasma stimulate tPA-mediated conversion of Plg to Pls | – | – | – | – | – | – | – | – | – | – | –
2 | factor XII purified from human plasma (protein) IPPWEAPKEHKYKAEEHTVVLTVTGEPCHFPFQYHRQLYHKCTHKGRPGPQPWCATTPNFDQDQRWGYCLEPKKVKDHCSKHSPCQKGGTCVNMPSGPHCLCPQHLTGNHCQKEKCFEPQLLRFFHKNEIWYRTEQAAVARCQCKGPDAHCQRLASQACRTNPCLHGGRCLEVEGHRLCHCPVGYTGAFCDVDTKASCYDGRGLSYRGLARTTLSGAPCQPWASEATYRNVTAEQARNWGLGGHAFCRNPDNDIRPWCFVLNRDRLSWEYCDLAQCQTPTQAAPPTPVSPRLHVPLMPAQPAPPKPQPTTRTPPQSQTPGALPAKREQPPSLTRNGPLSCGQRLRKSLSSMTRVVGGLVALRGAHPYIAALYWGHSFCAGSLIAPCWVLTAAHCLQDRPAPEDLTVVLGQERRNHSCEPCQTLAVRSYRLHEAFSPVSYQHDLALLRLQEDADGSCALLSPYVQPVCLPSGAARPSETTLCQVAGWGHQFEGAEEYASFLQEAQVPFLSLERCSAPDVHGSSILPGMLCAGFLEGGTDACQGDSGGPLVCEDQAAERRLTLQGIISWGSGCGDRNKPGVYTDVAYYLAWIREHTVS | – | – | amyloid-like peptide aggregates of FP13 and Aβ stimulate the activation of factor XII | All three amyloid-like aggregates are able to induce factor XII auto-activation; the potency of the Aβ(1-40) E22Q was somewhat lower | non-amyloid controls FP10 and mIAPP do not activate factor XII | All three amyloid-like aggregates are able to induce factor XII auto-activation | LAM12 and TTR11 stimulate factor XII activation, to a similar extent as kaolin | did not or hardly auto-activate factor XII (not shown) | amyloid-like peptide aggregates of FP13 and Aβ stimulate the activation of factor XII | All three amyloid-like aggregates are able to induce factor XII auto-activation | LAM12 and TTR11 stimulate factor XII activation, to a similar extent as kaolin | non-amyloid controls FP10 and mIAPP do not activate factor XII | did not or hardly auto-activate factor XII (not shown)
